Measured values as given in patent US20250115654A1, “PHARMACEUTICAL COMPOSITION OF GLP-1 RECEPTOR AND GIP RECEPTOR DUAL AGONIST, AND USE THEREOF” (FUJIAN SHENGDI PHARMACEUTICAL CO., LTD., priority 2021, published 2025).
Like-named read-outs stand apart in the source and are kept apart here. Numbered stars: 1 amine (or outer) side, 2 acyl side, 3 side chain; on linkers, the order of the positions; unused ones are H or OH. Square brackets hold non-standard residues; d marks the D form. Side chains are listed from the residue outwards. Peptide text beside a SMILES is read from it. * marks the point of attachment. C20 diacid = O=C(O)CCCCCCCCCCCCCCCCCCC(=O)*; γGlu = O=C(O)[C@H](CCC(=O)[*:2])N[*:1]; AEEA = NCCOCCOCC(=O)O; Aib = CC(C)(N)C(=O)O

B1: compound 9# H-YAibEGTFTSDYSIYLEK(OEG-OEG-yGlu-C20-OH)IAAQEFVNWLIAGGPSSGAPPPS-NH2 (peptide)
peptide: H-Y[Aib]EGTFTSDYSIYLEK([AEEA-AEEA-γGlu-C20‑OH])IAAQEFVNWLIAGGPSSGAPPPS-NH2
B2: compound 10# H-YAibEGTFTSDYSIYLEK(OEG-OEG-yGlu-C20-OH)IAAQEFINWLIAGGPSSGAPPPS-NH2 (peptide)
peptide: H-Y[Aib]EGTFTSDYSIYLEK([AEEA-AEEA-γGlu-C20‑OH])IAAQEFINWLIAGGPSSGAPPPS-NH2
B3: compound 12# H-YAibEGTFTSDYSIYK(OEG-OEG-yGlu-C20-OH)EKIAAQEFVNWLIAGGPSSGAPPPS-NH2 (peptide)
peptide: H-Y[Aib]EGTFTSDYSIYK([AEEA-AEEA-γGlu-C20‑OH])EKIAAQEFVNWLIAGGPSSGAPPPS-NH2
B4: compound 13# H-YAibEGTFTSDYSIYK(OEG-OEG-yGlu-C20-OH)ERIAAQEFVNWLIAGGPSSGAPPPS-NH2 (peptide)
peptide: H-Y[Aib]EGTFTSDYSIYK([AEEA-AEEA-γGlu-C20‑OH])ERIAAQEFVNWLIAGGPSSGAPPPS-NH2
B5: compound 14# H-YAibEGTFTSDYSIYK(OEG-OEG-yGlu-C20-OH)EKIAAQEFINWLIAGGPSSGAPPPS-NH2 (peptide)
peptide: H-Y[Aib]EGTFTSDYSIYK([AEEA-AEEA-γGlu-C20‑OH])EKIAAQEFINWLIAGGPSSGAPPPS-NH2
B6: compound 15# H-YAibEGTFTSDYSIYK(OEG-OEG-yGlu-C20-OH)ERIAAQEFINWLIAGGPSSGAPPPS-NH2 (peptide)
peptide: H-Y[Aib]EGTFTSDYSIYK([AEEA-AEEA-γGlu-C20‑OH])ERIAAQEFINWLIAGGPSSGAPPPS-NH2
B7: compound 16# H-YAibEGTFTSDYSIYK(OEG-OEG-yGlu-C20-OH)EKIAAQEFINWLLAGGPSSGAPPPS-NH2 (peptide)
peptide: H-Y[Aib]EGTFTSDYSIYK([AEEA-AEEA-γGlu-C20‑OH])EKIAAQEFINWLLAGGPSSGAPPPS-NH2
B8: compound 17# H-YAibEGTFTSDYSIYK(OEG-OEG-yGlu-C20-OH)ERIAAQEFVNWLLAGGPSSGAPPPS-NH2 (peptide)
peptide: H-Y[Aib]EGTFTSDYSIYK([AEEA-AEEA-γGlu-C20‑OH])ERIAAQEFVNWLLAGGPSSGAPPPS-NH2
B9: compound 18# H-YAibEGTFTSDYSIYK(OEG-OEG-yGlu-C20-OH)EKIAAQEFVNWLLAGGPSSGAPPPS-NH2 (peptide)
peptide: H-Y[Aib]EGTFTSDYSIYK([AEEA-AEEA-γGlu-C20‑OH])EKIAAQEFVNWLLAGGPSSGAPPPS-NH2

Tests used:
[1] = target: T1, human GIPR (Homo sapiens, UniProt P48546); assay: Agonist activity against GIPR, cAMP HTRF in CHO-K1 cells transiently transfected with hGIP receptor; assay type: cell-based
T1 construct: expressed in transfected cells; host or cells: wild-type CHO-K1, transient transfection with hGIP receptor plasmid (Fugene HD)
T1 sequence (P48546 22-466): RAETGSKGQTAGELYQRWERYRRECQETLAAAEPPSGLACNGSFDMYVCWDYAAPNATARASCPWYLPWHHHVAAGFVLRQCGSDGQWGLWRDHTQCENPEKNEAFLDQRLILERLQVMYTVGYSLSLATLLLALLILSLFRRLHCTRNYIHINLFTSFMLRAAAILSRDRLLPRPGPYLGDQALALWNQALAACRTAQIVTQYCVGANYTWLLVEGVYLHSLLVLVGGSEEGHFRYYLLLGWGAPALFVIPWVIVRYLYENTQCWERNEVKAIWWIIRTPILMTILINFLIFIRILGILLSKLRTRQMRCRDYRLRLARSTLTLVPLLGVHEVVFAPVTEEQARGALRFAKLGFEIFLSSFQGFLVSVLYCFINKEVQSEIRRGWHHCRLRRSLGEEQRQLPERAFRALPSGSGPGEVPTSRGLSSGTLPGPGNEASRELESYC
Method: Wild-type CHO-K1 cells were collected, and the cell suspension was adjusted to an appropriate density, seeded in a 6-well plate at 2 mL/well, and placed in an incubator at 37° C. with 5% CO2 for adherence culture overnight.

[2] = Stability of compounds in human plasma (LC-MS); assay type: in vitro ADME; details: human, read-out: Relative content of compounds retained in plasma (%)
Method: 5 μL of each of samples at concentrations of 20 ng/mL, 50 ng/mL, 100 ng/mL, 200 ng/mL, 500 ng/mL, 1000 ng/mL, 2000 ng/mL, 5000 ng/mL, and 10000 ng/mL was added to 45 L of human plasma. The content of the compounds in the samples was determined by the LC-MS method and a standard curve was formed. 5 μL of a 1 mg/mL polypeptide solution was added to 45 μL of human plasma. […] With the content at 0 min as the standard (100%), the relative content of the retained compounds in the samples at other time points was calculated.

[3] = target: T2, human glucose-dependent insulinotropic polypeptide receptor (GIPR) (human, UniProt P48546); assay: cell-based or functional assay
T2 sequence: T1 sequence (P48546 22-466)

[4] = target: human glucagon-like peptide-1 receptor (GLP-1R) (human, UniProt P43220); assay: cell-based or functional assay
[5] = Table 6 run, read-out: Activity against human GIPR (EC50 nM)

Row | Molecule | Activity against human GIPR (EC50 nM); cAMP, HTRF [3] | Activity against human GLP-1R (EC50 nM); cAMP, HTRF [4] | also measured
1 | CC[C@H](C)[C@H](NC(=O)[C@H](CCCCNC(=O)COCCOCCNC(=O)COCCOCCNC(=O)CC[C@H](NC(=O)CCCCCCCCCCCCCCCCCCC(=O)O)C(=O)O)NC(=O)[C@H](CCC(=O)O)NC(=O)[C@H](CC(C)C)NC(=O)[C@H](Cc1ccc(O)cc1)NC(=O)[C@@H](NC(=O)[C@H](CO)NC(=O)[C@H](Cc1ccc(O)cc1)NC(=O)[C@H](CC(=O)O)NC(=O)[C@H](CO)NC(=O)[C@@H](NC(=O)[C@H](Cc1ccccc1)NC(=O)[C@@H](NC(=O)CNC(=O)[C@H](CCC(=O)O)NC(=O)C(C)(C)NC(=O)[C@@H](N)Cc1ccc(O)cc1)[C@@H](C)O)[C@@H](C)O)[C@@H](C)CC)C(=O)N[C@@H](C)C(=O)N[C@@H](C)C(=O)N[C@@H](CCC(N)=O)C(=O)N[C@@H](CCC(=O)O)C(=O)N[C@@H](Cc1ccccc1)C(=O)N[C@H](C(=O)N[C@@H](CC(N)=O)C(=O)N[C@@H](Cc1c[nH]c2ccccc12)C(=O)N[C@@H](CC(C)C)C(=O)N[C@H](C(=O)N[C@@H](C)C(=O)NCC(=O)NCC(=O)N1CCC[C@H]1C(=O)N[C@@H](CO)C(=O)N[C@@H](CO)C(=O)NCC(=O)N[C@@H](C)C(=O)N1CCC[C@H]1C(=O)N1CCC[C@H]1C(=O)N1CCC[C@H]1C(=O)N[C@@H](CO)C(N)=O)[C@@H](C)CC)[C@@H](C)CC [Compound 10] (H-Y[Aib]EGTFTSDYSIYLEK([AEEA-AEEA-γGlu-C20 diacid])IAAQEFINWLIAGGPSSGAPPPS-NH2) |  |  | EC50 [1, 5]: 0.056 nM
2 | CC[C@H](C)[C@H](NC(=O)[C@H](CCCNC(=N)N)NC(=O)[C@H](CCC(=O)O)NC(=O)[C@H](CCCCNC(=O)COCCOCCNC(=O)COCCOCCNC(=O)CC[C@H](NC(=O)CCCCCCCCCCCCCCCCCCC(=O)O)C(=O)O)NC(=O)[C@H](Cc1ccc(O)cc1)NC(=O)[C@@H](NC(=O)[C@H](CO)NC(=O)[C@H](Cc1ccc(O)cc1)NC(=O)[C@H](CC(=O)O)NC(=O)[C@H](CO)NC(=O)[C@@H](NC(=O)[C@H](Cc1ccccc1)NC(=O)[C@@H](NC(=O)CNC(=O)[C@H](CCC(=O)O)NC(=O)C(C)(C)NC(=O)[C@@H](N)Cc1ccc(O)cc1)[C@@H](C)O)[C@@H](C)O)[C@@H](C)CC)C(=O)N[C@@H](C)C(=O)N[C@@H](C)C(=O)N[C@@H](CCC(N)=O)C(=O)N[C@@H](CCC(=O)O)C(=O)N[C@@H](Cc1ccccc1)C(=O)N[C@H](C(=O)N[C@@H](CC(N)=O)C(=O)N[C@@H](Cc1c[nH]c2ccccc12)C(=O)N[C@@H](CC(C)C)C(=O)N[C@H](C(=O)N[C@@H](C)C(=O)NCC(=O)NCC(=O)N1CCC[C@H]1C(=O)N[C@@H](CO)C(=O)N[C@@H](CO)C(=O)NCC(=O)N[C@@H](C)C(=O)N1CCC[C@H]1C(=O)N1CCC[C@H]1C(=O)N1CCC[C@H]1C(=O)N[C@@H](CO)C(N)=O)[C@@H](C)CC)C(C)C [Compound 13] (H-Y[Aib]EGTFTSDYSIYK([AEEA-AEEA-γGlu-C20 diacid])ERIAAQEFVNWLIAGGPSSGAPPPS-NH2) |  |  | EC50 [1, 5]: 0.13 nM
3 | CC[C@H](C)[C@H](NC(=O)[C@H](CCCNC(=N)N)NC(=O)[C@H](CCC(=O)O)NC(=O)[C@H](CCCCNC(=O)COCCOCCNC(=O)COCCOCCNC(=O)CC[C@H](NC(=O)CCCCCCCCCCCCCCCCCCC(=O)O)C(=O)O)NC(=O)[C@H](Cc1ccc(O)cc1)NC(=O)[C@@H](NC(=O)[C@H](CO)NC(=O)[C@H](Cc1ccc(O)cc1)NC(=O)[C@H](CC(=O)O)NC(=O)[C@H](CO)NC(=O)[C@@H](NC(=O)[C@H](Cc1ccccc1)NC(=O)[C@@H](NC(=O)CNC(=O)[C@H](CCC(=O)O)NC(=O)C(C)(C)NC(=O)[C@@H](N)Cc1ccc(O)cc1)[C@@H](C)O)[C@@H](C)O)[C@@H](C)CC)C(=O)N[C@@H](C)C(=O)N[C@@H](C)C(=O)N[C@@H](CCC(N)=O)C(=O)N[C@@H](CCC(=O)O)C(=O)N[C@@H](Cc1ccccc1)C(=O)N[C@H](C(=O)N[C@@H](CC(N)=O)C(=O)N[C@@H](Cc1c[nH]c2ccccc12)C(=O)N[C@@H](CC(C)C)C(=O)N[C@@H](CC(C)C)C(=O)N[C@@H](C)C(=O)NCC(=O)NCC(=O)N1CCC[C@H]1C(=O)N[C@@H](CO)C(=O)N[C@@H](CO)C(=O)NCC(=O)N[C@@H](C)C(=O)N1CCC[C@H]1C(=O)N1CCC[C@H]1C(=O)N1CCC[C@H]1C(=O)N[C@@H](CO)C(N)=O)C(C)C [Compound 17] (H-Y[Aib]EGTFTSDYSIYK([AEEA-AEEA-γGlu-C20 diacid])ERIAAQEFVNWLLAGGPSSGAPPPS-NH2) |  |  | EC50 [1, 5]: 0.11 nM
4 | CC[C@H](C)[C@H](NC(=O)[C@H](CC(C)C)NC(=O)[C@H](Cc1c[nH]c2ccccc12)NC(=O)[C@H](CCC(N)=O)NC(=O)[C@@H](NC(=O)[C@H](Cc1ccccc1)NC(=O)[C@H](C)NC(=O)[C@H](CCCCNC(=O)COCCOCCNC(=O)COCCOCCNC(=O)CC[C@H](NC(=O)CCCCCCCCCCCCCCCCCCC(=O)O)C(=O)O)NC(=O)[C@H](CCC(N)=O)NC(=O)[C@H](C)NC(=O)[C@@H](NC(=O)[C@H](CCCCN)NC(=O)[C@H](CC(=O)O)NC(=O)[C@H](CC(C)C)NC(=O)C(C)(C)NC(=O)[C@@H](NC(=O)[C@H](CO)NC(=O)[C@H](Cc1ccc(O)cc1)NC(=O)[C@H](CC(=O)O)NC(=O)[C@H](CO)NC(=O)[C@@H](NC(=O)[C@H](Cc1ccccc1)NC(=O)[C@@H](NC(=O)CNC(=O)[C@H](CCC(=O)O)NC(=O)C(C)(C)NC(=O)[C@@H](N)Cc1ccc(O)cc1)[C@@H](C)O)[C@@H](C)O)[C@@H](C)CC)[C@@H](C)CC)C(C)C)C(=O)N[C@@H](C)C(=O)NCC(=O)NCC(=O)N1CCC[C@H]1C(=O)N[C@@H](CO)C(=O)N[C@@H](CO)C(=O)NCC(=O)N[C@@H](C)C(=O)N1CCC[C@H]1C(=O)N1CCC[C@H]1C(=O)N1CCC[C@H]1C(=O)N[C@@H](CO)C(N)=O [LY3298176, reference compound] |  |  | remaining at 1 h, 0.1 mg/mL ([2]; 60 min): 115%; remaining at 2 h, 0.1 mg/mL ([2]; 120 min): 118%; remaining at 4 h, 0.1 mg/mL ([2]; 240 min): 113%; EC50 [1]: 0.031 nM
5 | B1 | 0.04 nM | 0.049 nM | 
6 | B2 | 0.056 nM | 0.065 nM | 
7 | B3 | 0.17 nM | 0.03 nM | 
8 | B4 | 0.13 nM | 0.017 nM | 
9 | B5 | 0.13 nM | 0.013 nM | 
10 | B6 | 0.23 nM | 0.015 nM | 
11 | B7 | 0.095 nM | 0.029 nM | 
12 | B8 | 0.11 nM | 0.022 nM | 
13 | B9 | 0.06 nM | 0.013 nM | 
